According to IntAct's records for PubMed 19763089:

B1: NF-kappa-B essential modulator (Mus musculus), O88522 (parent)
chain: MNKHPWKNQLSEMVQPSGGPAEDQDMLGEESSLGKPAMLHLPSEQGTPETLQRCLEENQELRDAIRQSNQMLRERCEELLHFQVSQREEKEFLMCKFQEARKLVERLSLEKLDLRSQREQALKELEQLKKCQQQMAEDKASVKAQVTSLLGELQESQSRLEAATKDRQALEGRIRAVSEQVRQLESEREVLQQQHSVQVDQLRMQNQSVEAALRMERQAASEEKRKLAQLQAAYHQLFQDYDSHIKSSKGMQLEDLRQQLQQAEEALVAKQELIDKLKEEAEQHKIVMETVPVLKAQADIYKADFQAERHAREKLVEKKEYLQEQLEQLQREFNKLKVGCHESARIEDMRKRHVETPQPPLLPAPAHHSFHLALSNQRRSPPEEPPDFCCPKCQYQAPDMDTLQIHVMECIE

Legend:
ubc_human UBC, P0CG48 [1] = variants of: B1; conditions: with ubc_human UBC
Chain of ubc_human UBC, P0CG48 (P0CG48 whole entry, looked up): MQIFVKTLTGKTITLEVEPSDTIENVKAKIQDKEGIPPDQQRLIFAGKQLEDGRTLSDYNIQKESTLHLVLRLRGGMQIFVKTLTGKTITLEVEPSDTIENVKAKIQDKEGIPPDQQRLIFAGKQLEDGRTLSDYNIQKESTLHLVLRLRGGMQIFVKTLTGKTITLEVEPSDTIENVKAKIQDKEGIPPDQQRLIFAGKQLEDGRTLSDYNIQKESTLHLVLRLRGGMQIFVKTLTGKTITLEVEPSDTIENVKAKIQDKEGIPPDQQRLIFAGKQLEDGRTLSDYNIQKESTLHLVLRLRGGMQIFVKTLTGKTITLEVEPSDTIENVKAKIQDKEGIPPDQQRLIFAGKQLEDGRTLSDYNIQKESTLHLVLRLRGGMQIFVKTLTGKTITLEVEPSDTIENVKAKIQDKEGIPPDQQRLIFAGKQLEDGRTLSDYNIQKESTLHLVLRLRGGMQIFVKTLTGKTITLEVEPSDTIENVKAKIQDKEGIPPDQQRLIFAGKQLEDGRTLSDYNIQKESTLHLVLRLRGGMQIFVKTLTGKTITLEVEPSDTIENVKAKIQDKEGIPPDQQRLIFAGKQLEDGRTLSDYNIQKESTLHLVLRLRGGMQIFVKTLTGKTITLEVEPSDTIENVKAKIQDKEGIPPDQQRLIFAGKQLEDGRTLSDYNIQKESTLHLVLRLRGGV

ubc_human UBC, P0CG48 [2] = variants of: B1; conditions: with ubc_human UBC; remark: listed apart in the source

Variant | effect of a mutation on the interaction (ubc_human UBC, P0CG48 [1]) | effect of a mutation on the interaction (ubc_human UBC, P0CG48 [2])
MNKHPWKNQLSEMVQPSGGPAEDQDMLGEESSLGKPAMLHLPSEQGTPETLQRCLEENQELRDAIRQSNQMLRERCEELLHFQVSQREEKEFLMCKFQEARKLVERLSLEKLDLRSQREQALKELEQLKKCQQQMAEDKASVKAQVTSLLGELQESQSRLEAATKDRQALEGRIRAVSEQVRQLESEREVLQQQHSVQVDQLRMQNQSVEAALRMERQAASEEKRKLAQLQAAYHQLFQDYDSHIKSSKGMQLEDLRQQLQQAEEALVAKQELIDKLKEEAEQHKIVMETVPVLKAQADISKADFQAERHAREKLVEKKEYLQEQLEQLQREFNKLKVGCHESARIEDMRKRHVETPQPPLLPAPAHHSFHLALSNQRRSPPEEPPDFCCPKCQYQAPDMDTLQIHVMECIE [Y301S] | disrupting interaction | decreasing interaction
MNKHPWKNQLSEMVQPSGGPAEDQDMLGEESSLGKPAMLHLPSEQGTPETLQRCLEENQELRDAIRQSNQMLRERCEELLHFQVSQREEKEFLMCKFQEARKLVERLSLEKLDLRSQREQALKELEQLKKCQQQMAEDKASVKAQVTSLLGELQESQSRLEAATKDRQALEGRIRAVSEQVRQLESEREVLQQQHSVQVDQLRMQNQSVEAALRMERQAASEEKRKLAQLQAAYHQLFQDYDSHIKSSKGMQLEDLRQQLQQAEEALVAKQELIDKLKEEAEQHKIVMETVPVLKAQADIYKANFQAERHAREKLVEKKEYLQEQLEQLQREFNKLKVGCHESARIEDMRKRHVETPQPPLLPAPAHHSFHLALSNQRRSPPEEPPDFCCPKCQYQAPDMDTLQIHVMECIE [D304N] | disrupting interaction | decreasing interaction
